B1: TMEM132E: Transmembrane protein 132E, SEQ ID NO: 8, co-transfected cDNA clone (protein, listed as Homo sapiens)
chain: MAPGMSGRGGAALLCLSALLAHASGRSHPASPSPPGPQASPVLPVSYRLSHTRLAFFLREARPPSPAVANSSLQRSEPFVVFQTKELPVLNVSLGPFSTSQVVARELLQPSSTLDIPERLTVNWKVRAFIVRSHVPASQPVVQVLFYVAGRDWDDFGVTERLPCVRLHAFRDAREVKSSCRLSGGLATCLVRAELPLAWFGPPAPAAPPTARRKSPDGLEPEATGESQQAELYYTLHAPDASGGCGGSRRGAGPGVGARAESPTQHPLLRIGSISLFRPPPRRTLQEHRLDSNLMIRLPDRPLKPGEVLSILLYLAPNSSSPSSPSVEHFTLRVKAKKGVTLLGTKSRSGQWHVTSELLTGAKHSTATVDVAWAQSTPLPPREGQGPLEILQLDFEMENFTSQSVKRRIMWHIDYRGHGALPDLERAVTELTVIQRDVQAILPLAMDTEIINTAILTGRTVAIPVKVIAIEVNGLVLDISALVECESDNEDIIKVSSSCDYVFVSGKESRGSMNARVTFRYDVLNAPLEMTVWVPKLPLHIELSDARLSQVKGWRVPILPDRRSVRESEDEDEEEEERRQSASRGCTLQYQHATLQVFTQFHTTSSEGTDQVVTMLGPDWLVEVTDLVSDFMRVGDPRVAHMVDSSTLAGLEPGTTPFKVVSPLTEAVLGETLLTVTEEKVSITQLQAQVVASLALSLRPSPGSSHTILATTAAQQTLSFLKQEALLSLWLSYSDGTTAPLSLYSPRDYGLLVSSLDEHVATVTQDRAFPLVVAEAEGSGELLRAELTIAESCQKTKRKSVLATTPVGLRVHFGRDEEDPTYDYPGPSQPGPGGGEDEARGAGPPGSALPAPEAPGPGTASPVVPPTEDFLPLPTGFLQVPRGLTDLEIGMYALLGVFCLAILVFLINCIVFVLRYRHKRIPPEGQTSMDHSHHWVFLGNGQPLRVQGELSPPAGNPLETVPAFCHGDHHSSGSSQTSVQSQVHGRGDGSSGGSARDQAEDPASSPTSKRKRVKFTTFTTLPSEELAYDSVPAGEEDEEEEEDLGWGCPDVAGPTRPTAPPDLHNYMRRIKEIA
B2: TMEM100: Transmembrane protein 100, SEQ ID NO: 9, co-transfected cDNA clone (protein, listed as Homo sapiens)
chain: MTEEPIKEILGAPKAHMAATMEKSPKSEVVITTVPLVSEIQLMAATGGTELSCYRCIIPFAVVVFIAGIVVTAVAYSFNSHGSIISIFGLVVLSSGLFLLASSALCWKVRQRSKKAKRRESQTALVANQRSLFA
B3: TMEM132D: Transmembrane protein 132D, SEQ ID NO: 7, co-transfected cDNA clone (protein, listed as Homo sapiens)
chain: MCPSEMGTLWHHWSPVLISLAALFSKVTEGRGILESIQRFSLLPTYLPVTYHINNADVSFFLKEANQDIMRNSSLQSRVESFLIYKSRRLPVLNASYGPFSIEQVVPQDLMLPSNPFGFTNKFSLNWKLKAHILRDKVYLSRPKVQVLFHIMGRDWDDRSAGEKLPCLRVFAFRETREVRGSCRLQGDLGLCVAELELLSSWFSPPTVVAGRRKSVDQPEGTPVELYYTVHPGGERGDCVREDARRSNGIRTGHSDIDESGPPLQRIGSIFLYQTHRKPSLRELRLDNSVAIHYIPKTVRKGDVLTFPVSISRNSTEDRFTLRAKVKKGVNIIGVRASSPSIWDVKERTDYTGKYAPAVIVCQKKAAGSENSADGASYEVMQIDVEVEEPGDLPATQLVTWQVEYPGEITSDLGVSKIYVSPKDLIGVVPLAMEAEILNTAILTGKTVAVPVKVVSVEDDGTVTELLESVECRSSDEDVIKVSDRCDYVFVNGKEMKGKVNVVVNFTYQHLSSPLEMTVWVPRLPLQIEVSDTELNQIKGWRVPIVSSRRPAGDSEEEEDDERRGRGCTLQYQHAMVRVLTQFVAEAAGPGGHLAHLLGSDWQVDITELINDFMQVEEPRIAKLQGGQILMGQELGMTTIQILSPLSDTILAEKTITVLDEKVTITDLGVQLVTGLSLSLQLSPGSNRAIFATAVAQELLQRPKQEAAISCWVQFSDGSVTPLDIYDGKDFSLMATSLDEKVVSIHQDPKFKWPIIAAETEGQGTLVKVEMVISESCQKSKRKSVLAVGTANIKVKFGQNDANPNTSDSRHTGAGVHMENNVSDRRPKKPSQEWGSQEGQYYGSSSMGLMEGRGTTTDRSILQKKKGQESLLDDNSHLQTIPSDLTSFPAQVDLPRSNGEMDGNDLMQASKGLSDLEIGMYALLGVFCLAILVFLINCVTFALKYRHKQVPFEEQEGMSHSHDWVGLSNRTELLENHINFASSQDEQITAIDRGMDFEESKYLLSTNSQKSINGQLFKPLGPIIIDGKDQKSEPPTSPTSKRKRVKFTTFTAVSSDDEYPTRNSIVMSSEDDIKWVCQDLDPGDCKELHNYMERLHENV
B4: TMEM132C: Transmembrane protein 132C, SEQ ID NO: 6, co-transfected cDNA clone (protein, listed as Homo sapiens)
chain: MRSEGAAPGPAAPLCGALSLLLGALLGKVIEGHGVTDNIQRFSSLPPYLPVSYHILRAETSFFLKEANQDLLRNSSLQARVESFFTYKTRQPPVLNASYGPFSVEKVVPLDLMLTSNFLGPTNKFSFDWKLKAHILRDKVYLSRPKVQVLFHIMGRDWDDHGAGEKLPCLRVFAFRETREVRGSCRLKGDLGLCVAELELLSSWFSAPTVGAGRKKSMDQPEGTPVELYYTVHPGNERGDCAGGDFRKGNAIRPGKDGLEETTSHLQRIGTVGLYRAQDSAQLSELRLDGNVVIWLPSRPVKQGEVVTAYVTISSNSSVDLFILRAKVKKGVNILSAQTREPRQWGVKQEVGSGGKHVTATVACQRLGPSPRNRSSSLFNEVVQMNFEIASFSSLSGTQPITWQVEYPRKGTTDIAVSEIFVSQKDLVGIVPLAMDTEILNTAVLTGKTVAMPIKVVSVEENSAVMDISESVECKSTDEDVIKVSERCDYIFVNGKEIKGKMDAVVNFTYQYLSAPLCVTVWVPRLPLQIEVSDTELSQIKGWRVPIVTNKRPTRESEDEDEEERRGRGCALQYQHATVRVLTQFVSEGAGPWGQPNYLLSPNWQFDITHLVADFMKLEEPHVATLQDSRVLVGREVGMTTIQVLSPLSDSILAEKTITVLDDKVSVTDLAIQLVAGLSVALYPNAENSKAVTAVVTAEEVLRTPKQEAVFSTWLQFSDGSVTPLDIYDTKDFSLAATSQDEAVVSVPQPRSPRWPVVVAEGEGQGPLIRVDMTIAEACQKSKRKSILAVGVGNVRVKFGQNDADSSPGGDYEEDEIKNHASDRRQKGQHHERTGQDGHLYGSSPVEREEGALRRATTTARSLLDNKVVKNSRADGGRLAGEGQLQNIPIDFTNFPAHVDLPKAGSGLEENDLVQTPRGLSDLEIGMYALLGVFCLAILVFLINCATFALKYRHKQVPLEGQASMTHSHDWVWLGNEAELLESMGDAPPPQDEHTTIIDRGPGACEESNHLLLNGGSHKHVQSQIHRSADSGGRQGREQKQDPLHSPTSKRKKVKFTTFTTIPPDDSCPTVNSIVSSNDEDIKWVCQDVAVGAPKELRNYLEKLKDKA

Molecular target: T1, human α9α10 nAChR (Homo sapiens, UniProt Q9GZZ6+Q9UGM1)
T1 construct: expressed in transfected cells; host or cells: HEK293T
T1 sequence (Q9UGM1 23-479): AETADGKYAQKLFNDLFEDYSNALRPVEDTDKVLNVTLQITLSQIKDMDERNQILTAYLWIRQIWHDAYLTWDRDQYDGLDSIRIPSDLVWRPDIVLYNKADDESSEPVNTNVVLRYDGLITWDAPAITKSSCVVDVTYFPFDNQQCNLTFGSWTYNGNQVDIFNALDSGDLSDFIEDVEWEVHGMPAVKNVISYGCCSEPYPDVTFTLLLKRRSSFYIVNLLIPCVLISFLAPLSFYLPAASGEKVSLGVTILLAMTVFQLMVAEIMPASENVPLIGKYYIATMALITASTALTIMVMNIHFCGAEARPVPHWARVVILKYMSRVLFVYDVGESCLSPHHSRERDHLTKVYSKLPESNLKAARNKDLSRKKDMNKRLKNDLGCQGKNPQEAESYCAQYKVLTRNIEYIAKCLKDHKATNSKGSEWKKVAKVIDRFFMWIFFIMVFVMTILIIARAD
T1 sequence (Q9GZZ6 25-450): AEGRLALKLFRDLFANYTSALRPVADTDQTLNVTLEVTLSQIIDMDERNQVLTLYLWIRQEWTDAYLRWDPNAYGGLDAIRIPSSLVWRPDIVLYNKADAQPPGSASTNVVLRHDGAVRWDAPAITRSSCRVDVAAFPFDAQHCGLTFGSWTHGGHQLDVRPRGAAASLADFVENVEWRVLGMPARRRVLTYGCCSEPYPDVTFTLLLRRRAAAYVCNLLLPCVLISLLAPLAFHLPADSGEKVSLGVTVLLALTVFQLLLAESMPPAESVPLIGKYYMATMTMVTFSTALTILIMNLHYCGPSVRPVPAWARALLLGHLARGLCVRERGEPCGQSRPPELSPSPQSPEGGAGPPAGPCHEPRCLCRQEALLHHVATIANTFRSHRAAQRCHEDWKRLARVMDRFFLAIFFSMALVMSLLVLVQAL
Assay: FLIPR calcium assay of HEK293T cells co-transfected with α9α10 nAChR and cDNA clones, response evoked by 200 μM ACh
Format: cell-based
Conditions: 200 μM ACh; for FLIPR Response (Fold/Baseline): 180 s; for functional expression of co-transfected α9α10 nAChR in cDNA library screen: HEK293T, 20,000 cDNA clones
Experimental: Human embryonic kidney 293T (HEK293T) cells were cultured in high glucose DMEM medium supplemented with 10% FBS, sodium pyruvate and penicillin/streptomycin. Prior to transfection, cells were seeded at ˜80-90% confluence in 384-well fluorescence imaging plate reader (FLIPR) assay plates. After a 4 hour (hr) incubation, wells of cells were individually co-transfected with human α9α10 nAChR plus one of 20,000 clones from cDNA libraries encoding most all human proteins (Origene Technologies; Rockville, Md.; Broad Institute; Cambridge, Mass.) using Fugene HD (Promega; Madison, Wis.) according to the manufacture's protocol. After two days incubation, cells were washed three times with assay buffer (137 mM NaCl, 4 mM KCl, 2 mM CaCl2, 1 mM MgCl2, 5 mM glucose, 10 mM HEPES pH7.4) and loaded with Calcium5 dye (Molecular Devices; San Jose, Calif.) and 1.25 mM probenecid for 1 hr at room temperature (RT). After three washes, the plates were placed in the FLIPR stage.
To further characterize the regulation of α9α10 nAChR expression, HEK293T cells were co-transfected with α9α10 nAChR and each of CHAT, TMIE, TMEM100, TMEM132A, TMEM132C, TMEM132D, TMEM132E and TNFRSF10A individually and in combination (Table 2).

[1] = HEK293T co-transfected with α9α10 nAChR + CHAT plus the named gene
[2] = HEK293T co-transfected with α9α10 nAChR plus the named gene

| Molecule | FLIPR Response (Fold/Baseline) [1] [Fold/Baseline] | FLIPR Response (Fold/Baseline) [2] [Fold/Baseline] | functional expression of co-transfected α9α10 nAChR in cDNA library screen |
| --- | --- | --- | --- |
| B1 | 2.6 | 0.7 | enabled functional expression |
| B2 | 3.0 | 0.6 | enabled functional expression |
| B3 | 2.6 | 0.4 | enabled functional expression |
| B4 | 2.0 | 0.7 | enabled functional expression |
